Experimental data taken from the DeepSol protein solubility set.

Assay: soluble on expression in E. coli; label from the status in PepcDB or PDB records

Row | Sequence | soluble on expression in E. coli
1 | METKQSMDYIIKGPGGTTKPIAPKLITVNPLNIIIESNSGQIDKTLELKNIYPCRIAFRVRTNGPTRYTVCPSKGFLSNGEKVAIQITLIDGTKYQSNHQFIVQAMPSPGDFADRKFIWKQPNFLGIFTNTRVKTMRPAQSLPKSNPKSPAKVSTPTDSGMSSPVASSESLVTPSVPSWSKSPSSPIDHGKFAENINDLSVQVKKAIDEKNTRTSEMVSVVNQIKAVEVDLDRQAQLVNELSERVKRGEIQYSNLVMHERSLRVELGRLKNNEAESIGQ | not soluble
2 | METNFIGDDYGPLFHYQYRLIVIGDSTVGKSSLLRYFTEGKMAEISDPTVGVDFYARMIELRPGYRVKLQLWDTAGQEKFRSITKSYYRNSVGVLAIYDTTNRESFEHVENWVKEAALNLGGPSPSKCVFQLVGTKSDMDSQRQVNYEEGEYFAKYHKMKFIETSSRTGDNVNEAFHMIAQEIQNRVDDGELRPVDGWEGLKTGIMRSQSVCLSERSFPQNSSAGACGC | not soluble
3 | METTLVIIRGNSGSGKTTLAQALQRRVGHHTLLVSQDVVRRDMLMSHDYPGNISIGLIEQIVCYGLGRVPVVIVEGILARDRYGKMLARLSQSFPRVLTYYFEVSFATTLARHQKRHRDFGVEDMRRWWLPHDTLGVANEVLIGEQQDLTTEVQQIMTTIHDCDLEHHHHHH | not soluble
4 | METYDVLVIGGGPGGSTAARYAAKYGLRTLMIEKRPEIGSPVRCGEGLSKGILNEADIKPDKSFIANEVKGARIYGPSEKRPIILQSEKAGNEVGFVLERDKFDKHLAALAAKAGADVWVKSPALGVIKEDGKVAGAKIRHENNVVEVRAKMVIAADGFESEFGRWAGLKSVILARNDIISALQYRMINIDVDPDYTDFYLGSIAPGGYIWVFPKGEGMANVGIGSSINFIHNRLELKNYLDRFIENHPGLKKGQDIQLVTGGVSVSKVKMPITMPGLMLVGDAARLIDPITGGGIANAIVSGMYAAQVSKEAIESNDYSPQMMGKYEKLVKDRFERKHLRNWVAKEKLAQLSDETLDKLVDIVSEQVLTTISVEAILKAIAEKYPEVVKELEDLILEHHHHHH | soluble
5 | MEVEVGQIVNTHGIKGEVKVKSNSDFTETRFQPGEQLLVKHNNTEIVYTVASYRIHKGFHMLRFEGINNINEIEHLKGDYIYQERDHQDIELGEHEYYYSDIIGCTVFKDDDTPIGRVINIFETGANDVWVVKGEKEYLIPYIEDVVKDIDIETKTIKITPMEGLLDLEHHHHHH | soluble
6 | MEVSTSYCTPAVNFKYGSFQDSDVSMREDDLFRMGSYNSQGYYADGTHLDGSIGEEDETSSGSNDQHMDFEEDDFDMESSMTEDLVDEDEEEEDEEDNDEWTNQKRTDNQNSVAYYAAMEMLRIRFPFQSIAIRISDFCCLQEKDLLNDTMIDFYLNHIVEHVLPDSNGSNVTVLPSIFWHNLSLRQHAFDSEDEKMMSDEQKMDLKFGDLHDFVADFDLQDFDYIVVPVNEWEHWSLAVICHPFTAQARTVIFDSQLTADLNNLQNMATLIESFMKYSYEKRTGNAMPFPLPCILPQRMPQQTNNFDCGIFIAEFARRFLLSPPKDPATISLCFHPLATLL | not soluble
7 | MEVVIIAFLTQKEFEDLGFDEVEDFEKMEKRASHAVNLYCRNRYDYKDLKKEIALVQKAVKRAIAYQIAYLNDSGVMTAEDKQSFAGISLGRTSISYTVGHGQGSQQKTLADRFNLCLDAENELLAVGLGYTGISYDR | not soluble
8 | MEYLNVAEIKALLNSTISKLNPRYTSNYMIVTAILTGARLSEIAGLTWNDINFNFNTININKSYDYFAKSFKPTKNKSSNRIIKINNTLCDVLKELRTNNTDLVFKNKRGLIPTSNAVNKALRARLEELNINRRNFHFHSLRHSHVAFLLSQGIDIYPIAQRLGHSDITTTTRTYAYLIEEYKDKNDAIIIAGLDKLEHHHHHH | soluble
9 | MEYYFTAQKLAVGYDNRPLIENIDFSLKRGEILTLIGPNGAGKSTILKSIARQLSLVSGTIYLDKSDVVTMNGNEFAKKMAVVLTDKLKTELMTCYDVVATGRYPYTGRFGVLSDEDKKAVDEAMELVNVSQIKDKDFTKISDGQRQRVMLSRAICQQPEIIVLDEPTSYLDIKYKLEFLSILQRLKRQKNLTVIMSLHELDMAKRVSDHILCIDGRYVDRYGTPEEVFTDQYVSGLFGITAGSLEHHHHHH | not soluble
10 | MFALVLAAGRSRRFDGDKRKALLPCGRTLLTACLETAGKVFTETGVVLREDDEVQTLGIPSKVTIIRCKHADLGMGHSLAAGIAAALNSSADAVAILLADMPWIEPQTLRDLARLADPQRIALPMHEGQRGHPVIIGRRFWPRLLALEGDQGAKALITNNPAFCDVMNCDDPGVLRDADTRSALAIACRQHLTAGRDLEHHHHHH | not soluble
11 | MFARNFFKGGTKVPHFKNTAECETVKMGVPEKVVIPMLQHVGAPCEPCVKKGDTVRVGQVIGNSDKYISSPIHSSVSGTVNDVAPMLFAGGIYVTAVEIKTDGKQEIYEGIKPPSFSNSKEFISAIRESGLVGLGGAGFPAHVKLSPPPDKKIDTLIINAAECEPYITSDYREIIENSWNVVSGINIIMEILGIENVLIGIEDNKPEAIKEMTRVAATDDRINVIKLKSRYPQGAEKMLIYATTGRKVPPGKLPADVGVIVMNVNSVSFISEYIKTGMPLIKKRVTVDGPSVKRPGNVEVLIGTPISEVFSFCGGFGIVPKKILMGGPMMGIAQYTLDTPVLKHTNALLAFDETTAVLPKEQACIRCGRCVRACPMNLLPLYLNNNSIRGNIEELNRYHVMDCIECGSCAYVCPAKINLVQSIRLGKAQVRQAAAKGGN | not soluble
12 | MFAVDPQMNQTVNSPKGQLLLRTLAMPADTNANGDIFGGWIMSQLDLAGGILAKEISCGRIVTVSVSSITFKKPVKVGDVVCCYGECTKIGRTSMSINLEVWVKPVKEEGVGERFQVCEATFNYVAIDANGRPRAISLSNGSQKSSLEHHHHHH | not soluble
13 | MFDIGFGELLLVMVLGLIVLGPERLPVAVRTVASWIRTLRSLASTVQNELSQELKLQEFQESLKKVEKASLQNLSPELKASMDELKDAAEAMKRGYTETPSPQKSDDPKKSGDHSATVEPQSNIPLNDPEAAYDGVIEAETAVRPADSQQKPENAAVAENHNDGRHATSDEAVGNNNVKPEQSQPSAASARQPSDSRLEHHHHHH | not soluble
14 | MFDKLKENEELWDLFTRKEEYSVTFRDAYERFPYYLSSHRNIFEPRVSKFLVENGLKPQYPDGKKFAVCLTHDIDAIYPDKLYPIVGPVKALSRGKLAEAVKAPFSRVNRKWNPCWNFREILALEAKYNAKSSFYFLALTSEETDFNYNIKDLETELGFISDSGWEVGLHGGHESYNSLEDIKEKKRRLEEVLGKKVVGYRNHYLRFRVPDTWELLSKAGFKYDTTFGYSDCAGFRNGMCHPYRPFNLNEGRQIDILEIPLVIMDRSLLKDYMRLNVKKAWECTKHLINTVEKYNGVITILWHNNMCIDGENLRYYEKVLEYCAEKNAWITSGEEIYNWWTSKIEPGNLEHHHHHH | not soluble
15 | MFDRYESGERAVLVHINFTQEGEWEDLAEFEMLVSSAGVETLQVVTGSRQSPHPKYYVGEGKAQEIATTVHLTGAEIVIFNHSLSPAQERNLEALCKCRVLDRTGLILDIFAQRARTHEGKLQVELAQLRHISTRLIRGWTHLERQKGGIGLRGPGETQLETDRRLLRERIKAILRRLEKVAKQREQGRRARNRAEIPTISLVGYTNAGKSTLFNRITEAGVYAADQLFATLDPTLRKMELADVGPAILADTVGFIRHLPHDLVAAFKATLQETQEADILLHVVDASDERFRENIQAVHEVLEEIDAHEVPTLVVMNKIDNLESQTPRIERDEEGVPRAVWVSAMEGLGIELLFDALTERLASQMVEHQLRIPPQYQGRFRSTFFQMKCIQREEYDQDGNLLIDIRMQQVDWSRLEKREGAVLTDFIVTLEHHHHHH | not soluble
16 | MFENESLSFEEQTIIQAAERYVQQELANEASGHDWWHIYRVTQLAKTIAEKEQANLFLCILTALLHDIGDEKFNESEEAGLLKVQQWLEANNVSTEQTNHILSIIANMSFKGGNTGKTVTTLEGKVVQDADRLDAIGAIGIARVMAYSGNKGRLIHDPHKQPREQLTQEEYRNGEDTAIMHFYEKLLKLKEQMNTNYGRLLAEKRHQFMELYLEEFYQEWDGHRLEHHHHHH | soluble
17 | MFFLQMSGFPGSGKSTVSKYIAKLTGAVIIDHDVLKSALLKSLKVKGIESTIVGGLAYDAEWVLIDSYLEQGHSVILDSPCLYEGMVEKGIELSNKHGVKYKYIECYLNDMEEINRRLQTRKRMISQIEKVESEVGFKKWLNGSKRPSNNEYLIVDSSKPIEQYVEKMMDYMTK | not soluble
18 | MFFTDESGIHHDPSKVRRLGLYNVPVDYPSRKLNVLASIPLFDGVPCFMFTYSNVNSEIFAEFLRLFRNSGPIVLILDNAKFHKNAYVFSVASQLGITLLFLPPYSPDLNPIELVWKDLKRWVNTYYNLEYTLDSMEEEFYYLFLRECSQTVMKFKKRL | soluble
19 | MFGIFDKGQKIKGTVVLMPKNVLDFNAITSIGKGGVIDTATGILGQGVSLVGGVIDTATSFLGRNISMQLISATQTDGSGNGKVGKEVYLEKHLPTLPTLGARQDAFSIFFEWDASFGIPGAFYIKNFMTDEFFLVSVKLEDIPNHGTIEFVCNSWVYNFRSYKKNRIFFVNDTYLPSATPAPLLKYRKEEFEVLRGDGTGKRKDFDRIYDYDVYNDLGNPDGGDPRPILGGCSIYPYPLRVRTGRERTRTDPNSEKPGEVYVPRDENFGHLKSSDFLTYGIKSLSHDVIPLFKSAIFQLRVTSSEFESFEDVRSLYEGGIKLPTDILSQISPLPALKEIFRTDGENVLQFPPPHVAKVSKSGVMTDEEFAREVIAGVNPNVIRRLQEFPPKSTLDPTLYGDQTSTITKEQLEINMGGVTVEEALSTQRLFILDYQDAFIPYLTRINSLPTAKAYATRTILFLKDDGTLKPLAIELSKPHPDGDNLGPESIVVLPATEGVDSTIWLLAKAHVIVNDSGYHQLVSHWLNTHAVMEPFAIATNRHLSVLHPIYKLLYPHYRDTININGLARQSLINADGIIEKSFLPGKYSIEMSSSVYKNWVFTHQALPADLVKRGLAIEDPSAPHGLRLVIEDYPYAVDGLEIWDAIKTWVHEYVSLYYPTDAAVQQDTELQAWWKEAVEKGHGDLKEKPWWPKKQTTEDLIQSCSIIVWTASALHAAVNFGQYPYGGLILNRPTLARRFIPAEGTPEYDEMVKNPQKAYLRTITPKFETLIDLSVIEILSRHASDEIYLGERETPNWTTDKKALEAFKRFGSKLTGIEGKINARNSDPSLRNRTGPVQLPYTLLHRSSEEGLTFKGIPNSISI | soluble
20 | MFGKQLFEEVGSKISETIANSPAKDVEKNIKAMLGGAFNRMDLVTREEFDIQQQVLIKTRTKLAALEARLEKLEAAQNPERAALEAAEAAAE | not soluble
21 | MFHVKLTLTTMLDTMNSSAHRPVVVADVDTGIDDALAITYLGYLHRRGLIELRITTSAGNCTAEQAAANSAEIMNSLTLSDVPITPGAPKPRALPLTTTPETHGPTGLGYHTTRATIPQLSNAAAAVDLWKGADYLLVAGPATNVAWAAENAPEVLNAIPHVTFMTGAFHYPGNTTPTAEWNAWVDPHALKEALAHYRGHAVRPTICPLNVTESVLLTPQRLKQWCQRSQEPVLPILSDALRFYFEFHESVGVGYMAQIHDLAAAMVLLNRVPHTTRPGFVDVEADAELTRGTTVVDWDSNYGDHPANAQILTALQSEDVFAEFERVVLEY | not soluble
22 | MFIDTSELCDLYAEQVDVVEPIFSSFGGVSNFYGKVTTVKCFESNGLIAEVLEENGEGRVLVIDGGGAVRRGLIDAELAQLAVDNGWEGIIVYGAVRQIQQLENLDIGIHALAPIPVSADESSAGESDIPVNFGGVTFFPEDYIYADLTGIILSQEPLDLEDLEHHHHHH | not soluble
23 | MFISVLDLFKIGIGPSSSHTMGPMTAANVFRDHVDQLVSQTPDDLNYRVYCVLKGSLAFTGRGHATDRAVALGLHGHSPVSLAGEDVNALTAKLWATDTLQLTSGREIGFNPEDDIVFDKSDPLPQHPNGMIFYLLDEEGKKILSETFFSIGGGFICTLAEINQ | not soluble
